Results from US20260176619A1 (published 2026).

T1: His-tagged recombinant human CD45 (human, UniProt P08575 26-577, limits assumed)
T1 construct: His-tagged
T1 sequence (looked up): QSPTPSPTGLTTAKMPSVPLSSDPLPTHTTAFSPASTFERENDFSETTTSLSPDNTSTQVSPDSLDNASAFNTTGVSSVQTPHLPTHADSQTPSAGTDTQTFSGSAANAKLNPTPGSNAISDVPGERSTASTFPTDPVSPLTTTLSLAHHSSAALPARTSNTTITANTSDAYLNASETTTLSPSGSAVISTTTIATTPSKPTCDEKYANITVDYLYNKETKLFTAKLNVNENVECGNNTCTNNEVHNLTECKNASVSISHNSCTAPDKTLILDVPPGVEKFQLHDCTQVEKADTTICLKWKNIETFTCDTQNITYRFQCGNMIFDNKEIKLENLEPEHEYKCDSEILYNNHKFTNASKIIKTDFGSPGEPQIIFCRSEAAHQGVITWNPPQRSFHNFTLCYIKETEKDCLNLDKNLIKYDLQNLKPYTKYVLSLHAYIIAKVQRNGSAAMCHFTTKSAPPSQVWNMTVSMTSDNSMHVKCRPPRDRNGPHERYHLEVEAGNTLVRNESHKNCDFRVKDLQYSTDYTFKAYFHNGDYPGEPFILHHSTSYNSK


Biological target: T1, His-tagged recombinant human CD45
Experiment: assay not given; the affinity ELISA is described in Example 22
Description: 20 nM His-tagged recombinant human receptors: CD117, CD45, CD46, CD133, and CD135, were immobilized onto nickel coated plates overnight at 4° C. in TBS buffer. Non-bound receptors were removed with three-washes of 1×TBS-T buffer. Blocking buffer was added to each well and incubated plate for 0.5 hr at room temperature with continuous shaking of 550 rpm. The plate was washed with 1X TBS-T. Serial dilutions of candidate ligands with concentrations ranged from 2 pM to 1 μM were added to each well and incubated for 1 hr at room temperature with continuous shaking of 550 rpm. After three washes of 1X TBS-T, horseradish peroxidase (HRP) enzyme liked FLAG antibody solution (1:200) was added to each well for 1 hr at room temperature with continuous shaking of 550 rpm. Chemiluminescent substrate was added and HRP enzymic activity was measured using an […]. The data was analyzed by non-linear regression to estimate binding affinity.

Row | Kd | Binder
1 | > 10 nM | L122-CD45 scFv (scFv, Full scFv-FLAG tagged with an extra C-terminal cys residue) scFv: EVKLLESGGGLVQPGGSLKLSCAASGFDFSRYWMSWVRQAPGKGLEWIGEINPTSSTINFTPSLKDKVFISRDNAKNTLYLQMSKVRSEDTALYYCARGNYYRYGDAMDYWGQGTSVTVSSAKGGGGSGGGGSGGGGSGGGGSDIALTQSPASLAVSLGQRATISCRASKSVSTSGYSYLHWYQQKPGQPPKLLIYLASNLESGVPARFSGSGSGTDFTLNIHPVEEEDAATYYCQHSRELPFTFGSGTKLEIKGGGGSGGGGSDYKDDDDKGGGGSC
2 | > 10 nM | L112-CD45 scFv (scFv, Full scFv-FLAG tagged with an extra C-terminal cys residue) scFv: EVQLVESGGDLVQPGRSLKLSCVASGFTFNNYWMTWIRQVPGKGLEWVASISSSGGSIYYPDSVKDRFTISRDNAKNTLFLQMNSLRSEDTATYYCARLYYYSGGGDAWGQGTSVTVSSGGGGSGGGGSGGGGSGGGGDIQMTQSPSFLSASVGDRVTIICKASQDINKYLDWYQQKLGEAPKLLIYNTNNLHTGIPSRFSGSGSGTDYTLTISSLQPEDVATYFCLQHISRWTFGGGTKLELKGGGGSGGGGSDYKDDDDKGGGGSC
3 | > 10 nM | L111-CD45 scFv (scFv, Full scFv-FLAG tagged with an extra C-terminal cys residue; also called L11I-CD45; LIII-CD45 scFv) scFv: DIQMTQSPSFLSASVGDRVTINCKASQNINKYLDWYQQKHGEAPKLLIHYTNNLHTGIPSRFSGSGSGTDYTLTISSLQPEDVATYFCLQHSSRWTFGGGTKLELKGGGGSGGGGSGGGGSGGGGEVQLVESGGDLVQPGRSLKLSCIASGFTFTNFWMTWIRQVSGKGLEWVASISSSGGSIYYPDSVKDRFTISRDNAKNTLYLQMNSLRSEDTATYYCVKLHYYSGGGDAWGQGTSVTVSSGGGGSGGGGSDYKDDDDKGGGGSC
